Data published in publication PMC9540369.

Molecular target: mTFP1
Assay: SDS-PAGE with in-gel fluorescence; whole-cell extract of C. reinhardtii transformants in SDS sample buffer without β-mercaptoethanol, 40°C for 5 min; 15% resolving gel; gel washed in water to refold the fluorescent proteins; imaged with bandpass filters

stoichiometry N: 2
Substance: mTFP1
